# B1: human GntK (gluconokinase isoform I, C9orf103) (Homo sapiens) (protein)
# chain: MAAPGALLVMGVSGSGKSTVGALLASELGWKFYDADDYHPEENRRKMGKGIPLNDQDRIPWLCNLHDILLRDVASGQRVVLACSALKKTYRDILTQGKDGVALKCEESGKEAKQAEMQLLVVHLSGSFEVISGRLLKREGHFMPPELLQSQFETLEPPAAPENFIQISVDKNVSEIIATIMETLKMK
# notes: dimer, also tetramer
# Columns and labels:
# purified protein [1] = substrate: Nc1ncnc2c1ncn2[C@@H]1O[C@H](COP(=O)(O)OP(=O)(O)OP(=O)(O)O)[C@@H](O)[C@H]1O; assay: purified protein; assay type: biochemical, Homo sapiens; details: gluconate as fixed co-substrate, 0.65 mM NADP+, 100 mM phosphate, 40 mM NaCl, 2.5 mM MgCl2, pH 7.2, 0.25 µM enzyme
# purified protein [2] = substrate: O=C(O)[C@H](O)[C@@H](O)[C@H](O)[C@H](O)CO; assay: purified protein; assay type: biochemical, Homo sapiens; details: 1 mM ATP, 0.65 mM NADP+, 100 mM phosphate, 40 mM NaCl, 2.5 mM MgCl2, pH 7.2, 0.25 µM enzyme
protein,measurement,setting,value
B1,Km,purified protein [1],343.8 ± 13.9 µM
same,Vmax,purified protein [1],144 µM/min
same,kcat,purified protein [1],9.5 ± 0.5 s⁻¹
same,kcat/Km,purified protein [1],28000 ± 2000 M⁻¹ s⁻¹
same,Km,purified protein [2],106.4 ± 18.5 µM
same,Vmax,purified protein [2],138 µM/min
same,kcat,purified protein [2],9.3 ± 0.5 s⁻¹
same,kcat/Km,purified protein [2],89000 ± 13000 M⁻¹ s⁻¹

# — paper PMC4045858, “Biochemical Characterization of Human Gluconokinase and the Proposed Metabolic Impact of Gluconic Acid as Determined by Constraint Based Metabolic Network Analysis” (PLoS ONE, 2014)
